Legend:
[1] = target: NS5A 1b-5 (untagged, expressed from pYES-NS5A 1b-5)
[2] = target: T1, GST-NS5A (HCV-1a NS5A aa 1-427 fused in frame with glutathione-S-transferase), P26664
T1 chain: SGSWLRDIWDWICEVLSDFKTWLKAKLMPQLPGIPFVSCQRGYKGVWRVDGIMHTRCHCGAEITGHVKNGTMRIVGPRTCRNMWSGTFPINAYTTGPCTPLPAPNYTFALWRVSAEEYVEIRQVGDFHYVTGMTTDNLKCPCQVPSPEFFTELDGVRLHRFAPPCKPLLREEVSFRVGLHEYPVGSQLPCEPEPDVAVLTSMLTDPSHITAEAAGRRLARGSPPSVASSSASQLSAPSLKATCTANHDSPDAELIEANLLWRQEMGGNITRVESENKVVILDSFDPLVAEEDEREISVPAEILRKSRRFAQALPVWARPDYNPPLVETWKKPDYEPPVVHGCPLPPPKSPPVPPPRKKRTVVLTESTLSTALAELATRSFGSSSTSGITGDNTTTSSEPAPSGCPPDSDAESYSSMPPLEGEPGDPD

[3] = target: NS5A 1b-4 (untagged, expressed from pYES-NS5A 1b-4)
[4] = target: vaccinia virus K3L protein, P18378
[5] = target: NS5A 1b-2 (untagged, expressed from pYES-NS5A 1b-2)
[6] = target: NS5A 1b-wt (untagged, expressed from pYES-NS5A 1b-wt)
[7] = target: GST (glutathione-S-transferase alone) [GST: P08515]
[8] = target: T2, NS5A 1a-wt (full-length NS5A from IFN-resistant HCV-1a, untagged), P26664
T2 chain: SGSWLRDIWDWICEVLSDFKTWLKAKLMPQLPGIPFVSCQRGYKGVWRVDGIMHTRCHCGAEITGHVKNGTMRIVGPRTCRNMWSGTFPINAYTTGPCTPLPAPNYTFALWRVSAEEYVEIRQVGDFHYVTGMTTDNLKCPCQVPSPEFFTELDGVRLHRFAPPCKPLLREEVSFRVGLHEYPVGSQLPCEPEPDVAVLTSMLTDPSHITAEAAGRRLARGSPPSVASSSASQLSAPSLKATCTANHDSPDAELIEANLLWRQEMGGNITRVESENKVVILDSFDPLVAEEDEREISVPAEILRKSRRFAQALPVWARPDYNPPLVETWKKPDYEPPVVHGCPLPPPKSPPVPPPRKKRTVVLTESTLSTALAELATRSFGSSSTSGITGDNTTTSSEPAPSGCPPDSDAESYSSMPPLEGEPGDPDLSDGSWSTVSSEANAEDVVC

B1: wild type human PKR, full length (aa 1-551) (protein)
chain: MAGDLSAGFFMEELNTYRQKQGVVLKYQELPNSGPPHDRRFTFQVIIDGREFPEGEGRSKKEAKNAAAKLAVEILNKEKKAVSPLLLTTTNSSEGLSMGNYIGLINRIAQKKRLTVNYEQCASGVHGPEGFHYKCKMGQKEYSIGTGSTKQEAKQLAAKLAYLQILSEETSVKSDYLSSGSFATTCESQSNSLVTSTLASESSSEGDFSADTSEINSNSDSLNSSSLLMNGLRNNQRKAKRSLAPRFDLPDMKETKYTVDKRFGMDFKEIELIGSGGFGQVFKAKHRIDGKTYVIKRVKYNNEKAEREVKALAKLDHVNIVHYNGCWDGFDYDPETSDDSLESSDYDPENSKNSSRSKTKCLFIQMEFCDKGTLEQWIEKRRGEKLDKVLALELFEQITKGVDYIHSKKLIHRDLKPSNIFLVDTKQVKIGDFGLVTSLKNDGKRTRSKGTLRYMSPEQISSQDYGKEVDLYALGLILAELLHVCDTAFETSKFFTDLRDGIISDIFDKKEKTLLQKLLSKKPEDRPNTSEILRTLTVWKKSPEKNERHTC
What does the source list for B1?
eIF-2α serine 51 phosphorylation in yeast RY1-1 (isoelectric focusing immunoblot) [1]: possessed predominantly the hyper-phosphorylated isoform of eIF-2α, similar to the vector control strain; PKR autophosphorylation and phosphorylation of an exogenous histone substrate, in vitro kinase assay [2]: as little as 0.2 pmol of NS5A can inhibit 1.8 pmol of PKR; eIF-2α serine 51 phosphorylation in yeast RY1-1 (isoelectric focusing immunoblot) [3]: possessed predominantly the hyper-phosphorylated isoform of eIF-2α, similar to the vector control strain; level of basally phosphorylated eIF-2α relative to total (isoelectric focusing, densitometry) [4]: K3L, 11.7% (lane 3); eIF-2α serine 51 phosphorylation in yeast RY1-1 (isoelectric focusing immunoblot) [5]: possessed predominantly the hyper-phosphorylated isoform of eIF-2α, similar to the vector control strain; eIF-2α serine 51 phosphorylation in yeast RY1-1 (isoelectric focusing immunoblot) [6]: exhibited a significant reduction in the level of hyper-phosphorylated eIF-2α; PKR autophosphorylation and phosphorylation of an exogenous histone substrate, in vitro kinase assay [7]: Equal molar levels of GST had no effect upon PKR activity; level of basally phosphorylated eIF-2α relative to total (isoelectric focusing, densitometry) [8]: NS5A, 9.8% (lane 2); level of unphosphorylated eIF-2α in yeast RY1-1 over vector control [8]: approximately an 11-fold increase in the level of unphosphorylated eIF-2α

Source: patent US7148006
